# From patent publication US8796183B2, “Template fixed beta-hairpin loop mimetics and their use in phage display” (Polyphor Ltd., priority 2003, dated 2014)
# Positions of bridges follow the written chain, without caps; N, C: chain ends. No end group written: not given here.
# Test: Circular dichroism
# Type: physicochemical
# Conditions: linear precursor of the compound (before disulfide bridge formation), 10^−4 M in water as TFA salt, room temperature (FIG. 7)
# Description: Circular dichroism measurements are sensitive to the secondary structure of both peptides and proteins and have been extensively used to examine the conformation of both (M. Jourdan, S. R. Griffiths-Jones, M. S. Searle, Eur. J. Biochem. 2000, 267, 3539-3548; J. T. Pelto, L. R. Mc. Lean, Analytical Biochemistry, 2000, 277, 167-176).
# Circular Dichroism spectra were obtained on a Jasco J-715 spectropolarimeter, equipped with a spectra manager for windows 95/NT. Version 1.52.01 [Build2]. All measurements were performed at room temperature in quartz cells of 0.1 cm path length in water. Spectra were recorded with a 1 nm bandwidth, five scans were collected to improve the signal-to-noise ratio and the solvent baseline was recorded and subtracted from the spectra of the samples. All CD spectra were smoothed (with the same value), and are reported as molecular ellipticity units (Mol. Ellip.) of peptide residue.
# Measurement parameters: Band width: 1.0 nm, response: 1 s, sensitivity: standard, measurement range: 240-190 nm, data pitch: 0.5 nm, scanning speed: 50 nm/min. Concentration of the linear deprotected, purified peptide solutions: 10^−4 M in water as TFA salts. The pH and purity of the linear deprotected, purified peptides as precursors of the following examples were: Example 3: pH 6.38, purity 91%; Example 4: pH 6.77, purity 89%; Example 5: pH 6.01, purity 98%; Example 9: pH 6.00, purity 94%.
row,Substance,CD-spectrum: secondary structure content
1,"Example 3: Ac-NH-Cys-Thr-Lys-Trp-Phe-Ser-Asn-His-Tyr-Gln-Thr-Cys-H, cysteines linked by a disulfide bridge; reference not having a template (Ac-CTKWFSNHYQTC; disulfide 1-12 (inferred); also: C-terminus written as -H)",mixture of a coil structure and a β-sheet structure
2,"Example 4: Ac-NH-Glu-Thr-Cys-Thr-Lys-Trp-Phe-Ser-Asn-His-Tyr-Gln-Thr-Cys-Thr-Lys-H, cysteines linked by a disulfide bridge (Ac-ETCTKWFSNHYQTCTK; disulfide 3-14 (inferred); also: C-terminus written as -H)",high content of a β-sheet structure
3,"Example 5: Ac-NH-Cys-Thr-Lys-Trp-Phe-Leu-Ala-His-Tyr-Ala-Thr-Cys-H, cysteines linked by a disulfide bridge; reference not having a template (Ac-CTKWFLAHYATC; disulfide 1-12 (inferred); also: C-terminus written as -H)",high content of coil- and α-helix structure and traces of a β-sheet structure
4,"Example 9: Ac-NH-Glu-Thr-Cys-Thr-Lys-Trp-Phe-Leu-Ala-His-Tyr-Ala-Thr-Cys-Thr-Lys-H, cysteines linked by a disulfide bridge (Ac-ETCTKWFLAHYATCTK; disulfide 3-14 (inferred); also: C-terminus written as -H)",high content of β-sheet structure and a β-turn structure
